Reference: patent US20090169538A1, “Methods of Treating or Preventing Tissue Damage Caused by Increased Blood Flow” (REGENERX BIOPHARMACEUTICALS, INC., priority 2006, published 2009)

Tests used:
PINCH = molecular target: T1, PINCH (Mus musculus, UniProt Q99JW4); test: phage display ELISA confirmation and coimmunoprecipitation with PINCH; format: binding
T1 construct: myc or FLAG (co-immunoprecipitation only); made in house; host or cells: T7 phage amplified in E. coli BLT5615 (ELISA); Cos and 10T1/2 cells transfected (co-IP)
Description: (§1) To investigate the potential mechanisms through which thymosin β4 might be influencing cell migration and survival events, thymosin β4 interacting proteins were searched. The amino-terminus of […] was fused with affi-gel beads resulting in exposure of the carboxy-terminus that allowed identification of previously unknown interacting proteins but prohibited association with actin. An E9.5-12.5 mouse heart T7 phage cDNA library was synthesized and screened by phage display and thymosin β4-interacting clones were enriched and confirmed by ELISA. PINCH, a LIM domain protein, was most consistently isolated in this screen and interacted with thymosin β4 in the absence of actin (ELISA). PINCH and integrin linked kinase (ILK) interact directly with one another and indirectly with the actin cytoskeleton as part of a larger complex involved in cell-extracellular matrix interactions known as the focal adhesion complex. PINCH and ILK are required for cell motility and for cell survival, in part by promoting phosphorylation of the serine-threonine kinase Akt/protein kinase B, a central kinase in survival and growth signaling pathways. […] The PINCH interaction with thymosin β4 mapped to the fourth and fifth LIM domains of PINCH while the amino terminal ankryin domain of ILK was sufficient for thymosin β4 interaction. […]

[1] = molecular target: T2, integrin linked kinase (ILK) (Homo sapiens, UniProt Q13418); test: coimmunoprecipitation with ILK; format: binding
T2 construct: expressed in transfected cells; host or cells: Cos and 10T1/2 cells
T2 sequence (Q13418 1-452): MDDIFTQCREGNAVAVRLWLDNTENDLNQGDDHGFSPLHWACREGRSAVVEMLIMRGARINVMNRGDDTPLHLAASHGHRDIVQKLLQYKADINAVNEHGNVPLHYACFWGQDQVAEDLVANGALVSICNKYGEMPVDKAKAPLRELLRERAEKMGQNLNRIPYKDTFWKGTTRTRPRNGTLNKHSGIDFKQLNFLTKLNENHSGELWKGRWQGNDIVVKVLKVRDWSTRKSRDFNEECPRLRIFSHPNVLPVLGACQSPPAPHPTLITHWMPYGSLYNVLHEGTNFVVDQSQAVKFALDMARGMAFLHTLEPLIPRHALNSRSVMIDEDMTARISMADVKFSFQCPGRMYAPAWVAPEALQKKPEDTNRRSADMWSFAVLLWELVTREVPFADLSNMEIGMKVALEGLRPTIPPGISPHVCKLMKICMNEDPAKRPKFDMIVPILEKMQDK
Description: as §1

[2] = plasmids transfected in cultured cells

T1 sequence (Q99JW4 whole entry): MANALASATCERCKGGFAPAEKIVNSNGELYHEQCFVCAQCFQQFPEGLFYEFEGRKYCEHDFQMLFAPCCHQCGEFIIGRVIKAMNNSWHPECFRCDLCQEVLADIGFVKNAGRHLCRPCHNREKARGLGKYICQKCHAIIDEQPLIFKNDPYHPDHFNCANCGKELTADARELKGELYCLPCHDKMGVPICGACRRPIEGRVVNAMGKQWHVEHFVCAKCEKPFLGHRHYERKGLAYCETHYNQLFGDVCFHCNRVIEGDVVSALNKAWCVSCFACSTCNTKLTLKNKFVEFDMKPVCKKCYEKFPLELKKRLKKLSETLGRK

For thymosin β4, the “interaction with PINCH in the absence of actin (ELISA)” value (PINCH; phage display clones, ELISA) was “interacted”, the “co-precipitation with PINCH” value (PINCH; [2]) was “co-precipitated” and the “strength of interaction of ILK with thymosin β4” value ([1]; common complex immunoprecipitation) was “weaker than with PINCH”. For the same substance, the “co-precipitation with ILK” value [1, 2] was “co-precipitated”.
